Results on three substances are retold here after patent US20120253017A1.

For test [1], the target named is rat Stem Cell Factor, GlySerHis(6) tag (rat) (UniProt P21581). The experiment in a line: BIAcore, SCF on high density CM5 chip. For orientation: SPR reads the build-up and loss of mass on a sensor chip optically.
The target in test [2] is mouse Stem Cell Factor, 6xHIS tag (mouse) (UniProt P20826). The experiment in a line: BIAcore, SCF on high density CM5 chip.
The target in test [3] is mouse c-kit (recombinant, on BIAcore chip) (mouse) (UniProt P05532). The experiment in a line: BIAcore, mouse cKIT on high density CM5 chip.
In test [4] the target is human Stem Cell Factor, 6xHIS tag (human) (UniProt P21583). The experiment in a line: BIAcore, SCF on CM5 chip.
human Stem Cell Factor, 6xHIS tag (human), sequence (P21583 26-190 limits assumed): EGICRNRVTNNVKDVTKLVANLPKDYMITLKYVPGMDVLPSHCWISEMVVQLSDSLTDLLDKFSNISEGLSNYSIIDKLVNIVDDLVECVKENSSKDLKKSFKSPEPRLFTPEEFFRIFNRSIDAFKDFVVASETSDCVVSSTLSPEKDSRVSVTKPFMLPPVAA
Test [5] has as its target mouse Stem Cell Factor, 6xHIS tag (mouse) (UniProt P20826). Briefly: BIAcore, SCF on CM5 chip.

mouse Stem Cell Factor, 6xHIS tag (mouse), sequence (P20826 26-190 limits assumed): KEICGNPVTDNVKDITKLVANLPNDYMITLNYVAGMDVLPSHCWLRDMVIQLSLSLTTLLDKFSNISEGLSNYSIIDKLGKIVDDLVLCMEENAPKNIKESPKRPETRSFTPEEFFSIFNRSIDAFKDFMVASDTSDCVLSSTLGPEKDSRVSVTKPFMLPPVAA
rat Stem Cell Factor, GlySerHis(6) tag (rat), sequence (P21581 other isoform, or with tags, fused parts or gaps limits assumed): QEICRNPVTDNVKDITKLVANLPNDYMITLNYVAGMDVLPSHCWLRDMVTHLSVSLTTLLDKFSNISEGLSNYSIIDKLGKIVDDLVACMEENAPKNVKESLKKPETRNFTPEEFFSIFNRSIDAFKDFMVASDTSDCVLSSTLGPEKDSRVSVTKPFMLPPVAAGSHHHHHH

By Kd is commonly meant the constant that tells how readily two partners part at equilibrium. The low end stands for tighter binding, the high end for weaker binding. Turning to “mcKIT GNNK+ E207A (from UniProt P05532 25-527) (Fc fusion)”, the Kd in test [1] was 81 nM; in test [2], 26 nM.
anti mouse cKIT antibody clone 2B8: in test [3], the response (RU) was 100 RU.
“Cyno cKIT ECD-Fc (from UniProt O95905) (Fc fusion)”: the values for the dissociation constant Kd in test [4] and in test [5] were 9.78 nM and 15 nM, respectively.
